From patent US20250304677A1 (VIB VZW, published 2025)

Columns and labels:
[1] = molecular target: T1, mouse folate receptor alpha (mFRα), recombinant protein (mouse, UniProt P35846 25-232); experiment: BLI tandem binning on mouse FRα; competitor (1st association) 2HFO19
T1 construct: Bought recombinant proteins (e.g. biotinylated, Acro Biosystems FO1-M82E9); also called mFOLR1; Ms FOLR1
Source text: (§1) VHHs that share high sequence identity in the CDR3 region, a VHH family, are derived from the same B-cell lineage and diverged from each other due to somatic hypermutation or affinity maturation. Typically, VHHs from the same family recognize the same epitope on the target, but may differ in other characteristics ^{∘}De Genst et al 2006 PNAS 103:4586-4591; De Gents et al 2005 J Biol Chem 280:14114-14121). To study whether the VHHs from the different families bound different epitopes, epitope binning was performed using a tandem binding approach in BLI. One VHH from each family was allowed to bind to mouse FRα on the biosensor, followed by binding of the second VHH ^{∘}Table 4).
(§2) Competition between VHHs from different complementarity determining region ^{∘}CDR) 3 families was assessed in a tandem binding assay using biolayer interferometry ^{∘}BLI). Streptavidin biosensors were loaded with biotinylated mouse FRα ^{∘}Acro Biosystems, Cat.nr. FO1-M82E9), followed by binding of anti-FRα VHHs ^{∘}VHH in first association). The biosensors were then transferred to a solution containing a second VHH mixed 1:1 with the first VHH ^{∘}VHH in second association). Using the FortéBio Data Analysis Software the absolute additional binding signal for the second association on top of the first association was calculated. The data were normalized per VHH in first association using the following formula: ^{∘}signal-self)/^{∘}maximum-self) with self being the value of the VHH in first association in combination with the same VHH in second association.

[2] = molecular target: T1, mouse folate receptor alpha (mFRα), …; experiment: BLI tandem binning on mouse FRα; competitor (1st association) 3MFR60
Source text: as §1, §2

[3] = molecular target: T1, mouse folate receptor alpha (mFRα), …; experiment: BLI tandem binning on mouse FRα; competitor (1st association) 2MFR32
Source text: as §1, §2

[4] = molecular target: T1, mouse folate receptor alpha (mFRα), …; experiment: BLI tandem binning on mouse FRα; competitor (1st association) 2HFO42
Source text: as §1, §2

[5] = molecular target: T1, mouse folate receptor alpha (mFRα), …; experiment: BLI, Avi-biotinylated FRα on streptavidin biosensors, VHH 100 nM
Experimental: (§3) The binding of humanized variants of 2HFO42 was assessed by kinetic binding analysis to mouse and human FRα protein, biotinylated via an Avi-tag, captured on streptavidin biosensors by biolayer interferometry ^{∘}BLI), essentially as described earlier. VHHs were analysed at 100 nM concentration, and off-rates were determined using fitting of 1:1 langmurian interaction. Dissociation constants were compared to 2HFO42^{∘}Q1E, Q5V, Q108L) ^{∘}P101500004) and 2MFR67 ^{∘}Q1E, Q5V, Q108L) ^{∘}P0150000), respectively.

[6] = molecular target: T2, human folate receptor alpha (hFRα), recombinant protein (human, UniProt P15328 25-233); experiment: as above
T2 construct: Bought recombinant proteins (His-tagged, or biotinylated via Avi-tag, e.g. AcroBiosystems FO1-H82E2, F01-H52H1); also called hFOLR1; huFOLR1
T2 sequence (P15328 25-233 limits assumed): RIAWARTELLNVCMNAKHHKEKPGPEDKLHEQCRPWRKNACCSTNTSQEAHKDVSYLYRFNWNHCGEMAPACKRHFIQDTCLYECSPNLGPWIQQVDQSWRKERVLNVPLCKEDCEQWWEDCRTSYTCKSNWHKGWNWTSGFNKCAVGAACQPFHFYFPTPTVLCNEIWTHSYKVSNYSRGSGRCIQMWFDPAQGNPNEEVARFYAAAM
Experimental: as §3

[7] = molecular target: T2, human folate receptor alpha (hFRα), …; experiment: competition AlphaLISA against 2MFR67-Flag3-His6 on human FRα
Experimental: Secondly, the variants were analysed for the capacity to compete with binding of family 3 VHH 2MFR67 to human FRα in a competition AlphaLISA, which is a homogeneous assay without wash steps. In here, human FRα biotinylated through an Avi-tag ^{∘}FO1-H82E2, AcroBiosystems) is captured on streptavidin coated Alpha Donor beads ^{∘}Perkin Elmer, Cat nr. 6760002), while the 2MFR67 is captured on anti-Flag antibody AlphaLISA acceptor beads ^{∘}Perkin Elmer, Cat nr. AL112C). Binding of 2MFR67 to the FRα leads to an energy transfer from one bead to the other, ultimately producing a fluorescent signal. To each well of white low binding 384-well microtitre plates ^{∘}F-bottom, Greiner Cat nr 781904), 5 μl of serial-diluted VHHs are mixed with 5 μl of 2.5 nM monovalent 2MFR67-Flag3-His6 and 5 μl of 15 nM biotinylated human FRα protein. After an incubation for 1 hour at room temperature, streptavidin coated Alpha Donor beads and anti-Flag AlphaLISA acceptor beads were added to a final concentration of 20 μg/mL each in a final volume of 25 μl for an incubation of 1 hour at room temperature in the dark. Interaction between beads was assessed after illumination at 680 nm and reading at 615 nm of on an Ensight instrument. Curve fitting is done in Graphpad Prism 9.0 using 4PL non-linear regression analysis.

[8] = molecular target: T1, mouse folate receptor alpha (mFRα), …; experiment: ELISA on mouse FRα, anti-VHH detection
Summary of the method: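 Binding of VHH constructs to mouse folate receptor alpha across a range of doses was measured by ELISA, with an anti-VHH reagent used for detection. The EC50 was taken from the dose-response curve.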

[9] = molecular target: T1, mouse folate receptor alpha (mFRα), …; experiment: BLI, VHH captured by anti-FLAG antibody on mouse Fc biosensors
Summary of the method: (§4)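 Biolayer interferometry was used to measure binding of VHHs to human, mouse and rhesus monkey folate receptor alpha. Each VHH was first captured on mouse Fc biosensors with an anti-FLAG tag antibody. A 1:1 binding model was applied to derive kon, koff and the equilibrium dissociation constant (KD).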

[10] = molecular target: T3, rhesus monkey folate receptor alpha, recombinant (rhesus monkey, UniProt F7BP60 25-233); experiment: as above
T3 construct: also called rhFolR1; rhesus macaque FRα
T3 sequence (F7BP60 entry or part of it): as the sequence (P15328 25-233 limits assumed) above, with I2T, W4R, R37K, A146P, H171Y counted along it
Summary of the method: as §4

[11] = molecular target: T4, human folate receptor alpha expressed on cells (transfected HEK293T, HeLa, MCF7, MDA-MB-231) (human, UniProt P15328 25-234); experiment: flow cytometry on HeLa cells, anti-Flag detection
T4 construct: HEK293T transiently transfected with human FOLR1; also called native human FRα; cell-expressed human FOLR1
T4 sequence (P15328 25-234 limits assumed): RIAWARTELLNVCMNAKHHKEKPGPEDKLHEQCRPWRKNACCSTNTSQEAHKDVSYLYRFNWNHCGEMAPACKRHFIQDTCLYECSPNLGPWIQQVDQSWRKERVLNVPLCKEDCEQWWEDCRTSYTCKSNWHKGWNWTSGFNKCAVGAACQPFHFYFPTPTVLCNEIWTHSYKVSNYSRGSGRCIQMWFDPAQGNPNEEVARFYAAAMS
Experimental: EC₅₀ values are found in Table 9. Detection of VHH cell binding was done through anti-Flag M2 mIgG1 followed by anti-mFc-PE in flow cytometry. Results are depicted as mean fluorescence intensity ^{∘}MFI).
(§5) Off-rates of purified variants were determined to human, mouse, and cynomolgus FRα in BLI. In addition, binding of the affinity optimised variants to cell-expressed human FRα on HeLa cells was determined by flow cytometry ^{∘}FIG. 10 B).

[12] = molecular target: T1, mouse folate receptor alpha (mFRα), …; experiment: BLI, Avi-biotinylated FRα
Experimental: (§6) Purified VHHs ^{∘}100 nM) were analysed for binding to avi-tagged biotinylated FRα protein captured on streptavidin-biosensors via BLI.
as §5

[13] = molecular target: T2, human folate receptor alpha (hFRα), …; experiment: BLI, Avi-biotinylated FRα
Experimental: as §6, §5

[14] = molecular target: T1, mouse folate receptor alpha (mFRα), …; experiment: BLI
Summary of the method: (§7)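 Biotinylated human and mouse folate receptor alpha were immobilised on streptavidin biosensors, and off-rates were read by biolayer interferometry, with a 1:1 binding model applied in the calculation. Each variant's koff is expressed as a signed fold change relative to its wild-type VHH, positive as wild-type over variant for a better off-rate and negative as variant over wild-type for a worse one.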

[15] = molecular target: T2, human folate receptor alpha (hFRα), …; experiment: BLI
Summary of the method: as §7

[16] = molecular target: T1, mouse folate receptor alpha (mFRα), …; experiment: BLI, purified VHH
Summary of the method: (§8)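 Off-rates to folate receptor alpha from human, mouse and cynomolgus were measured by biolayer interferometry. The VHH proteins tested were made with a flag3-His6 tag in TG-1 E. coli at 0.5 L scale and isolated from the periplasm on Ni Sepharose FastFlow columns.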

[17] = molecular target: T2, human folate receptor alpha (hFRα), …; experiment: BLI, purified VHH
Summary of the method: as §8

[18] = molecular target: T5, cynomolgus folate receptor alpha, recombinant (cynomolgus, UniProt A0A2K5U044 25-233); experiment: BLI, purified VHH
T5 construct: also called cyFOLR1; cynomolgus FRα
T5 sequence (A0A2K5U044 entry or part of it): as the sequence (P15328 25-233 limits assumed) above, with I2T, W4R, R37K, A146P, H171Y counted along it
Summary of the method: as §8

[19] = molecular target: T2, human folate receptor alpha (hFRα), …; experiment: BLI, VHH captured by anti-FLAG antibody on mouse Fc biosensors
Summary of the method: as §4

T1 sequence (P35846 25-232 limits assumed): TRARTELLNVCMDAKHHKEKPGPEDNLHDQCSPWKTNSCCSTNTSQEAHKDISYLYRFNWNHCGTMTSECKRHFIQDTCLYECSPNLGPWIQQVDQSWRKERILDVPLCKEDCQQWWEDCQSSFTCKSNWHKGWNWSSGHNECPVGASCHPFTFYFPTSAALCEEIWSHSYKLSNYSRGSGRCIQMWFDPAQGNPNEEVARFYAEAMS

Binder | koff [5] | koff [6] | IC50 [7] | EC50 (read off the curve) [8] | Kd [9] | koff [9] | kon [9] | Kd [10] | koff [10] | kon [10] | EC50 [11] | MFI top [11] | koff [16] | koff [17] | koff [18] | also measured
VHH 2MFR32 (VHH, also called 2MF832) VHH: QVQLQESGGGLVQAGGSLRVSCAASGFPFSTVYMSWVRQAPGKGLEWVSGINSNGGVIDYADSVKGRFTISRDNANNTLYLQLNSLKPEDTALYFCAKGRAFVATMPSSLRGQGTQVTVSS |  |  |  |  |  |  |  |  |  |  |  |  |  |  |  | normalized additional binding in 2nd association [1]: 100%; normalized additional binding in 2nd association [2]: 100%; normalized additional binding in 2nd association [3]: 0%; normalized additional binding in 2nd association [4]: 100%
P01500003: 2HF019(Q1E, Q5V, Q108L)-HIS6 (VHH, Entry includes the tag; also called 2HFO19 (P01500003); Nb19) VHH: EVQLVESGGGLVQPGGSLRVSCAASGFPFSTVYMSWVRQAPGKGLEWVSGINNDGGVIDYADSVKGRFTISRDNAKNTLYLQLNSLKPEDTALYFCARGRSFVATLSSSLRGQGTLVTVSS | 0.00052 s⁻¹ | 0.00499 s⁻¹ | 7.55 nM |  |  |  |  |  |  |  |  |  |  |  |  | 
P01500002 = h2 variant 2HFO42: 2HF042(Q1E, Q5V, A14P, V40A, L79Y, K83R, K105Q, Q108L)-HIS6 (VHH, Entry includes the tag) VHH: EVQLVESGGGLVQPGGSLRLSCAASGSGFSGMIMGWYRQAPGKQRELVATVTSHGTTNYADSVKGRFTISRDNAKNTVYLQMNSLRPEDTAVYYCNAHFPGIYWGQGTLVTVSS | 0.00307 s⁻¹ | 0.0132 s⁻¹ | 43.7 nM | ~5 nM |  |  |  |  |  |  |  |  |  |  |  | 
P01500006: 2HF042(Q1E, Q5V, A14P, V40A, L79Y, K83R, Q108L)-FLAG3-HIS6 (VHH, Entry includes the tags; also called P0150006) VHH: EVQLVESGGGLVQPGGSLRLSCAASGSGFSGMIMGWYRQAPGKQRELVATVTSHGTTNYADSVKGRFTISRDNAKNTVYLQMNSLRPEDTAVYYCNAHFPGIYWGKGTLVTVSS | 0.00252 s⁻¹ | 0.012 s⁻¹ |  |  | 6.77 nM | 0.00249 s⁻¹ | 367000 M⁻¹ s⁻¹ | 27.7 nM | 0.016 s⁻¹ | 577000 M⁻¹ s⁻¹ | 32.4 nM | 35300 MFI | 0.00174 s⁻¹ | 0.00947 s⁻¹ | 0.00158 s⁻¹ | koff [12]: 0.00189 s⁻¹; koff [13]: 0.00967 s⁻¹; koff [14]: 0.00162 s⁻¹; nm (Fold wt) [14]: 1; koff [15]: 0.0132 s⁻¹; nm (Fold wt) [15]: 1

Now from value to binder, other results behind:

koff [5] | koff [6] | IC50 [7] | EC50 (read off the curve) [8] | Kd [9] | koff [9] | kon [9] | Kd [10] | koff [10] | kon [10] | EC50 [11] | MFI top [11] | koff [16] | koff [17] | koff [18] | Binder | also measured
0.00042 s⁻¹ | 0.00304 s⁻¹ |  |  | 2.52 nM | 0.000571 s⁻¹ | 227000 M⁻¹ s⁻¹ | 13.8 nM | 0.00434 s⁻¹ | 315000 M⁻¹ s⁻¹ | 5.6 nM | 54900 MFI | 0.000447 s⁻¹ | 0.00282 s⁻¹ | 0.000454 s⁻¹ | P01500008: 2MFR67(Q1E, Q5V, Q108L)-FLAG3-HIS6 (VHH, Entry includes the tags; also called 2MFR67-Flag3-His6) VHH: EVQLVESGGGLVQAGGSLRLSCAASGSGFSGMIMGWYRQAPGKQRELVATVTSHGTTNYADSVKGRFTISREDSKNTVLLQMNSLKPEDTAVYYCNAHFPGIYWGKGTLVTVSS | Kd [19]: 8.78 nM; koff [19]: 0.0031 s⁻¹; kon [19]: 353000 M⁻¹ s⁻¹
0.00193 s⁻¹ | 0.0102 s⁻¹ | 39 nM | ~4 nM |  |  |  |  |  |  |  |  |  |  |  | P01500004: 2HF042(Q1E, Q5V, Q108L)-HIS6 (VHH, Entry includes the tag; also called 2HFO42 (P01500004); Nb42) VHH: EVQLVESGGGLVQAGGSLRLSCAASGSGFSGMIMGWYRQVPGKQRELVATVTSHGTTNYADSVKGRFTISRDNAKNTVLLQMNSLKPEDTAVYYCNAHFPGIYWGKGTLVTVSS | 
